Source: article PMC3351156 (Nucleic Acids Research, 2012)
Changes are numbered by the printed parent chain. Like-named read-outs stand apart in the source and are kept apart here. Non-standard residues stand in square brackets, D forms with d. No end group written: not given here. pT = C[C@@H](OP(=O)(O)O)[C@H](N)C(=O)O

B1: pT4-MDC1^2–133 (T4-phosphorylated MDC1^2–133) (domain or fragment, UniProt Q14676 2-133, looked up)
chain: EDTQAIDWDVEEEEETEQSSESLRCNVEPVGRLHIFSGAHGPEKDFPLHLGKNVVGRMPDCSVALPFPSISKQHAEIEILAWDKAPILRDCGSLNGTQILRPPKVLSPGVSHRLRDQELILFADLLCQYHRL
modifications: phosphothreonine at 4
B2: pT4-MDC1^2–133-R58A (domain or fragment, UniProt Q14676 2-133, looked up)
chain: B1 chain with R57A
modifications: phosphothreonine at 4
B3: MDC1^2–133 (unphosphorylated) (domain or fragment, UniProt Q14676 2-133, looked up)
chain: B1 chain
B4: FHA domain of Xenopus tropicalis MDC1 (domain or fragment)
chain: NIIGRHTNCDVTLPAQSVSKKHAIIEVEADCHTLCDQGSLNKTRRGKAAI
B5: phosphopeptide MED(pT)QAID (pT4-8P) (peptide)
peptide: MED[pT]QAID
B6: MDC1^27–138 (MDC1 FHA domain, residues 27–138) (domain or fragment, UniProt Q14676 27-138, looked up)
chain: NVEPVGRLHIFSGAHGPEKDFPLHLGKNVVGRMPDCSVALPFPSISKQHAEIEILAWDKAPILRDCGSLNGTQILRPPKVLSPGVSHRLRDQELILFADLLCQYHRLDVSLP

How the values were obtained:
[1] = molecular target: Mutator 2 FHA domain (Drosophila melanogaster) (Drosophila melanogaster)
AUC [2] = molecular target: the molecule itself; assay: AUC
SEC [3] = molecular target: the molecule itself; assay: SEC
AUC [4] = molecular target: the molecule itself; assay: AUC; remark: listed apart in the source
SEC [5] = molecular target: the molecule itself; assay: SEC; remark: listed apart in the source
[6] = molecular target: B6; assay: ITC
[7] = molecular target: B3; assay: AUC
SMT3-MDC1^2–133-T98A = molecular target: T1, SMT3-MDC1^2–133-T98A (UniProt Q14676 2-133, T98A); assay: ITC
T1 sequence (looked up): B1 chain with T97A

SEC [8] = molecular target: the molecule itself; assay: SEC; remark: listed apart in the source

Mutator 2 FHA domain (Drosophila melanogaster) (domain or fragment)
stoichiometry N [1]: 2

B1
Kd (AUC [2]): 0.035 µM

B2
binding result (SEC [3]): binds

B3
Kd (AUC [2]): 9.2 µM
Kd (AUC [4]): 16 µM

B4
stoichiometry N (SEC [5]): 2

B5
Kd [6]: 40 ± 3 µM
Kd [7]: 20 µM
fold reduction of binding affinity against SMT3-MDC1^2–133 (SMT3-MDC1^2–133-T98A): 7 fold

B6
stoichiometry N (SEC [8]): 2
